# Numbering of substitutions follows the chain as printed.
# B1: extracellular domain of human DPP4 (residues 39-766), K122D (domain or fragment)
# chain: SRKTYTLTDYLKNTYRLKLYSLRWISDHEYLYKQENNILVFNAEYGNSSVFLENSTFDEFGHSINDYSISPDGQFILLEYNYVDQWRHSYTASYDIYDLNKRQLITEERIPNNTQWVTWSPVGHKLAYVWNNDIYVKIEPNLPSYRITWTGKEDIIYNGITDWVYEEEVFSAYSALWWSPNGTFLAYAQFNDTEVPLIEYSFYSDESLQYPKTVRVPYPKAGAVNPTVKFFVVNTDSLSSVTNATSIQITAPASMLIGDHYLCDVTWATQERISLQWLRRIQNYSVMDICDYDESSGRWNCLVARQHIEMSTTGWVGRFRPSEPHFTLDGNSFYKIISNEEGYRHICYFQIDKKDCTFITKGTWEVIGIEALTSDYLYYISNEYKGMPGGRNLYKIQLSDYTKVTCLSCELNPERCQYYSVSFSKEAKYYQLRCSGPGLPLYTLHSSVNDKGLRVLEDNSALDKMLQNVQMPSKKLDFIILNETKFWYQMILPPHFDKSKKYPLLLDVYAGPCSQKADTVFRLNWATYLASTENIIVASFDGRGSGYQGDKIMHAINRRLGTFEVEDQIEAARQFSKMGFVDNKRIAIWGWSYGGYVTSMVLGSGSGVFKCGIAVAPVSRWEYYDSVYTERYMGLPTPEDNLDHYRNSTVMSRAENFKQVEYLLIHGTADDNVHFQQSAQISKALVDVGVDFQAMWYTDEDHGIASSTAHQHIYTHMSHFIKQCFSLP
# modifications: glycosylated (sites not given)
# B2: extracellular domain of human DPP4 (residues 39-766), D243A (domain or fragment)
# chain: B1 chain with D84K, D205A
# modifications: glycosylated (sites not given)
# B3: extracellular domain of human DPP4 (residues 39-766), P257A (domain or fragment)
# chain: B1 chain with D84K, P219A
# modifications: glycosylated (sites not given)
# Target: the molecule itself
# Experiment: nonreducing SDS-PAGE
row,Protein,binding result
1,B1,binds
2,B2,binds
3,B3,binds

# — article PMC8669218 (Acta Pharmacologica Sinica, 2021)
